US20080318246A1, “Deeply quenched enzyme sensors” (The Albert Einstein College of Medicine of Yeshiva …, priority 2007, published 2008)
Each block holds one substance with its values, some of them ahead of it.

Biological target: 14-3-3τ (UniProt P27348)
Experiment: cell-based or functional assay

Sequence of 14-3-3τ (P27348 whole entry): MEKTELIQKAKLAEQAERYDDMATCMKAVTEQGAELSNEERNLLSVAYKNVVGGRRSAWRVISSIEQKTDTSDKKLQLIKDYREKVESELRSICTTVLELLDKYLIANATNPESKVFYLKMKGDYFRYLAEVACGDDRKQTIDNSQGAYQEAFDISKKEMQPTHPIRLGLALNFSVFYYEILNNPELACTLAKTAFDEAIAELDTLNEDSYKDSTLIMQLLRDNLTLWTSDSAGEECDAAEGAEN

% Fluorescence Enhancement on phosphorylation, no quenching dye: 51%
PKA-induced fluorescence change; Alizarin Red 5x: 1.59 fold
PKA-induced fluorescence change; Alizarin Red 10x: 1.38 fold
PKA-induced fluorescence change; Alizarin Red 25x: 1.37 fold
PKA-induced fluorescence change; Alizarin Red 50x: 1.3 fold
PKA-induced fluorescence change; Aniline Blue WS 5x: 1.85 fold
PKA-induced fluorescence change; Aniline Blue WS 10x: 2.48 fold
PKA-induced fluorescence change; Aniline Blue WS 25x: 2.52 fold
PKA-induced fluorescence change; Aniline Blue WS 50x: 1.83 fold
PKA-induced fluorescence change; Chlorazol Black E 5x: 2.26 fold
PKA-induced fluorescence change; Chlorazol Black E 10x: 2.84 fold
PKA-induced fluorescence change; Chlorazol Black E 25x: 0.6 fold
PKA-induced fluorescence change; Chlorazol Black E 50x: 0.35 fold
PKA-induced fluorescence change; Eriochrome Black T 5x: 1.46 fold
PKA-induced fluorescence change; Eriochrome Black T 10x: 1.42 fold
PKA-induced fluorescence change; Eriochrome Black T 25x: 1.13 fold
PKA-induced fluorescence change; Eriochrome Black T 50x: 3.71 fold
PKA-induced fluorescence change; Evans Blue 5x: 1.92 fold
PKA-induced fluorescence change; Evans Blue 10x: 1.37 fold
PKA-induced fluorescence change; Evans Blue 25x: 1.01 fold
PKA-induced fluorescence change; Evans Blue 50x: 0.94 fold
PKA-induced fluorescence change; Ponceau S 5x: 1.93 fold
PKA-induced fluorescence change; Ponceau S 10x: 1.92 fold
PKA-induced fluorescence change; Ponceau S 25x: 4.61 fold
PKA-induced fluorescence change; Ponceau S 50x: 6.57 fold
PKA-induced fluorescence change; Reactive Blue 2 5x: 1.99 fold
PKA-induced fluorescence change; Reactive Blue 2 10x: 2.08 fold
PKA-induced fluorescence change; Reactive Blue 2 25x: 5.66 fold
PKA-induced fluorescence change; Reactive Blue 2 50x: 6.3 fold
PKA-induced fluorescence change; Rose Bengal 5x: 2.58 fold
PKA-induced fluorescence change; Rose Bengal 10x: 2.87 fold
PKA-induced fluorescence change; Rose Bengal 25x: 1.58 fold
PKA-induced fluorescence change; Rose Bengal 50x: 0.72 fold
PKA-induced fluorescence change; Tartrazine 5x: 1.41 fold
PKA-induced fluorescence change; Tartrazine 10x: 1.61 fold
PKA-induced fluorescence change; Tartrazine 25x: 1.82 fold
PKA-induced fluorescence change; Tartrazine 50x: 2.51 fold
PKA-induced fluorescence change; Trypan Blue 5x: 2.2 fold
PKA-induced fluorescence change; Trypan Blue 10x: 2.81 fold
PKA-induced fluorescence change; Trypan Blue 25x: 5.11 fold
PKA-induced fluorescence change; Trypan Blue 50x: 6.03 fold
Phosphorylation-induced fluorescence fold-change; P2/Ponceau S (1:50), plate reader - bottom read: 7 fold
Phosphorylation-induced fluorescence fold-change; P2/Ponceau S (1:50), plate reader - top read: 15 fold
Phosphorylation-induced fluorescence fold-change; P2/Ponceau S (1:50), spectrofluorimeter: 21 fold
Substance: P2, Ac-GRTGRRDap(Pyr)SYP-amide, serine-phosphorylated by PKA in the assay (peptide)

% Fluorescence Enhancement on phosphorylation, no quenching dye: 19%
PKA-induced fluorescence change; Alizarin Red 5x: 1.28 fold
PKA-induced fluorescence change; Alizarin Red 10x: 1.21 fold
PKA-induced fluorescence change; Alizarin Red 25x: 1.17 fold
PKA-induced fluorescence change; Alizarin Red 50x: 1.05 fold
PKA-induced fluorescence change; Aniline Blue WS 5x: 1.5 fold
PKA-induced fluorescence change; Aniline Blue WS 10x: 2.17 fold
PKA-induced fluorescence change; Aniline Blue WS 25x: 3.79 fold
PKA-induced fluorescence change; Aniline Blue WS 50x: 0.99 fold
PKA-induced fluorescence change; Chlorazol Black E 5x: 1.79 fold
PKA-induced fluorescence change; Chlorazol Black E 10x: 0.71 fold
PKA-induced fluorescence change; Chlorazol Black E 25x: 0.92 fold
PKA-induced fluorescence change; Chlorazol Black E 50x: 0.25 fold
PKA-induced fluorescence change; Eriochrome Black T 5x: 1.1 fold
PKA-induced fluorescence change; Eriochrome Black T 10x: 1.02 fold
PKA-induced fluorescence change; Eriochrome Black T 25x: 0.58 fold
PKA-induced fluorescence change; Eriochrome Black T 50x: 0.31 fold
PKA-induced fluorescence change; Evans Blue 5x: 1.1 fold
PKA-induced fluorescence change; Evans Blue 10x: 1.06 fold
PKA-induced fluorescence change; Evans Blue 25x: 1.06 fold
PKA-induced fluorescence change; Evans Blue 50x: 0.99 fold
PKA-induced fluorescence change; Ponceau S 5x: 1.81 fold
PKA-induced fluorescence change; Ponceau S 10x: 2.26 fold
PKA-induced fluorescence change; Ponceau S 25x: 2.75 fold
PKA-induced fluorescence change; Ponceau S 50x: 2.88 fold
PKA-induced fluorescence change; Reactive Blue 2 5x: 1.48 fold
PKA-induced fluorescence change; Reactive Blue 2 10x: 2.29 fold
PKA-induced fluorescence change; Reactive Blue 2 25x: 3.56 fold
PKA-induced fluorescence change; Reactive Blue 2 50x: 1.68 fold
PKA-induced fluorescence change; Rose Bengal 5x: 2.7 fold
PKA-induced fluorescence change; Rose Bengal 10x: 1.98 fold
PKA-induced fluorescence change; Rose Bengal 25x: 1.13 fold
PKA-induced fluorescence change; Rose Bengal 50x: 0.97 fold
PKA-induced fluorescence change; Tartrazine 5x: 1.19 fold
PKA-induced fluorescence change; Tartrazine 10x: 1.34 fold
PKA-induced fluorescence change; Tartrazine 25x: 1.47 fold
PKA-induced fluorescence change; Tartrazine 50x: 1.02 fold
PKA-induced fluorescence change; Trypan Blue 5x: 2.23 fold
PKA-induced fluorescence change; Trypan Blue 10x: 2.72 fold
PKA-induced fluorescence change; Trypan Blue 25x: 1.91 fold
PKA-induced fluorescence change; Trypan Blue 50x: 1.6 fold
Substance: P3, Ac-GRTDap(Pyr)RRFSYP-amide, serine-phosphorylated by PKA in the assay (peptide)
